Results on 10 molecules are retold here after patent US20210388105A1 (ELPISCIENCE SUZHOU BIOPHARMA, published 2021).

Test [1] addresses T1, human CD39 (full length, on cells) (human, UniProt P49961 1-510).
T1 construct: Recombinant on CHOK1-hCD39 cells or natural on SK-MEL-28, SK-MEL-5 and MOLP-8 cells; the cell line is named under assay; also called hCD39; ENTPD1
T1 sequence: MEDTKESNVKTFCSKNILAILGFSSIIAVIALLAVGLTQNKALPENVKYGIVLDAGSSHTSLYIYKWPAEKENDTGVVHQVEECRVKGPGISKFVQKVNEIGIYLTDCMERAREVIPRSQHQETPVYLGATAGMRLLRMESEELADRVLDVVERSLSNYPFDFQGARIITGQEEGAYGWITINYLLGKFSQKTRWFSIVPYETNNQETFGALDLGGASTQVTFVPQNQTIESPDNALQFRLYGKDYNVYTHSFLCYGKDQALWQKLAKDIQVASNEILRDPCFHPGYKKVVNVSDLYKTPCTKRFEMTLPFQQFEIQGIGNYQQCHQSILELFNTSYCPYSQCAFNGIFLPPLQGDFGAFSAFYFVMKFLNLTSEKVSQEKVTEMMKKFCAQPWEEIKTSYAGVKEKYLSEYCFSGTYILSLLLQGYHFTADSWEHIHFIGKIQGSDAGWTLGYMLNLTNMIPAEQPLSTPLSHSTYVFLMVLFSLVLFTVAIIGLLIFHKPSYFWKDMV
In words: FACS, MOLP-8 cells. The protocol: (§1) Similarly, human CD39 expressing cells SK-MEL-5, SK-MEL-28 or MOLP-8, were incubated with a gradient concentration of anti-CD39 antibodies for 30 minutes at 4° C. Cells were washed 3 times using FACS buffer and next incubated with fluorescence labelled secondary antibody (goat-anti-mouse IgG or goat anti-human IgG) for 30 minutes at 4° C. Cells were washed 3 times and then re-suspended in FACS buffer and analyzed by flow cytometry analysis on BD Celesta. Data plotted and analyzed using GraphPad Prism 8.02.
(§2) The binding affinity of the humanized antibodies for c23 was determined by FACS, using similar methods as described in Example 3.2. The c23 humanized antibody clones showing good binding affinity are listed in below Table 19 and Table 20, and also shown in FIGS. 7A, 7B and FIG. 8. EC₅₀ is the concentration of the indicated antibodies to reach 50% of the signal in this assay.
(In flow cytometry, cells or beads pass a laser one at a time.)

Test [2] concerns the target T1, human CD39 (full length, on cells). In words: cell-based or functional assay.
Test [3] has the same target. The experiment in a line: FACS, MOLP-8 cells. The protocol:
as §1, §2
This is another data set of the same source.

In test [4] the target is T2, 6×His tagged human CD39 (human, UniProt P49961 38-478).
T2 construct: Analyte in the Biacore assay
T2 sequence: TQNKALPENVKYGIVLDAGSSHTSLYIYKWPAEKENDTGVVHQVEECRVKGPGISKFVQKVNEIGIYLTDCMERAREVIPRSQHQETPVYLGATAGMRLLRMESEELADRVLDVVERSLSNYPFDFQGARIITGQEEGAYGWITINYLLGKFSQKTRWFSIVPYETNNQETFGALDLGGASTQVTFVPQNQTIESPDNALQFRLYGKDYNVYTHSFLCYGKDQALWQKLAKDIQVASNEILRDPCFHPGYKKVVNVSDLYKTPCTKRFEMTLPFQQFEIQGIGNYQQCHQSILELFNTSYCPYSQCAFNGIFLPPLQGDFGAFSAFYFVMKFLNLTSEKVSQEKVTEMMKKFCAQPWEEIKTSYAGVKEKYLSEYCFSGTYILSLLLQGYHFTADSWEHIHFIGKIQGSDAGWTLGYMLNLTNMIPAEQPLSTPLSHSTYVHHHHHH
In words: Biacore SPR, antibody captured on CM5 chip, His-tagged CD39 as analyte. As to the method:
In particular, humanized antibodies hu23.H5L5, hu23.201, hu14.H1L1 and reference antibodies 1394 and T895 were characterized for binding affinity against human CD39 using Biacore (GE). Briefly the antibodies to be tested were captured to CM5 chip (GE) using Human Antibody Capture Kit (GE). The antigen of 6×His tagged human CD39 was serially diluted for multiple doses and injected at 30 μl/min for 180s. Buffer flow was maintained for dissociation of 400s. 3 M MgCl2 was used for chip regeneration. The association and dissociation curves were fit with 1:1 binding model, and the Ka/Kd/KD values for each antibody were calculated.
On the technique in general: Surface plasmon resonance follows binding to a sensor surface in real time, without labels.

For test [5], the target named is T1, human CD39 (full length, on cells). The experiment in a line: FACS, MOLP-8 cells. As to the method: as §1
The binding affinity of the humanized antibodies for c14 was determined by FACS using MOLP-8 cells expressing human CD39, using similar methods as described in Example 3.2.
The source holds these as a separate data set.

Residue numbers refer to the chain shown, from its start. Values joined by “and” are separate entries in the source; they are usually repeats but may differ in a detail not shown here. Equal entries are not always repeated. Where two headings read alike, the source gives them in different places.

The EC50 is the concentration that produces a half-maximal response. The Kd is the free concentration of one partner at which half of the binding sites on the other are occupied at equilibrium, for simple one-to-one binding. High values mean a looser complex, low ones a tighter complex. One may read the koff as the first-order rate constant of dissociation. Higher therefore signals fast dissociation. One may read the kon as the second-order rate constant of association. Read a high kon as faster complex formation.

B1: c23 (antibody, V domains shown)
VH: EVQLQQSGAELLRPGASVKLSCTASGYNLKDTFLHWVKQRPEQGLEWIGRIDPANGNIKYDPKFQGKATLTADTSSNTAYLQLISLTSEDTAVYYCANSPYYYGSGYRIFDVWGAGTTVTVSS
VL: QIVLTQSPAIMSASPGEKVTITCSAFSSVNYMHWYQQKPGTSPKLLIYTTSNLASGVPTRFSGSGSGTSYSLTISRMEAEDAATYYCQQRSTYPFTFGSGTKLEIQ
notes: variable regions of mAb23 on human IgG constant regions; also called chimeric antibody c23
Regarding B1, the EC50 was 1.28 nM in test [1]; 1.03 nM and 0.397 nM in test [3]. In test [2], the “ATPase inhibition IC50 on SK-MEL-28 cells” value (“ATPase inhibition IC50” below) was 0.158 nM and 0.209 nM.

B2: hu23.203 (antibody, V domains shown)
VH: QVQLVQSGAEVKKPGASVKVSCKASGYTLKDTFLHWVRQAPGQRLEWMGRIDPANGNIKYDPKFQGRVTLTADTSSNTAYMELSSLRSEDTAVYYCANSPYYYGSGYRIFDVWGQGTLVTVSS
VL: EIVLTQSPATLTLSPGERATLSCSAFSSVNYMHWYQQKPGQAPRLLIYTTSNLASGIPARFSGSGSGTDYTLTISSLEPEDFAVYYCQQRSTYPFTFGQGTKLEIK
notes: humanized c23 by yeast display
In test [1], B2 came in with an EC50 of 0.429 nM. Also, the “ATPase inhibition IC50” value in test [2] amounted to 0.32 nM.

B3: hu23.201 (antibody, V domains shown)
VH: B2 VH
VL: B2 VL with T12S, A42S
notes: as for B2
Turning to B3, the EC50 in test [1] turned out to be 1.29 nM. In test [4], the dissociation constant (Kd) amounted to 24 nM, the koff is 0.00162 s⁻¹ and the on-rate (kon) came to 67500 M⁻¹ s⁻¹. The “ATPase inhibition IC50” value in test [2] was 0.264 nM.

B4: hu23.207 (antibody, V domains shown)
VH: B2 VH with Q1E, R50K
VL: B2 VL with T12S, A42S
notes: as for B2
As for B4, the EC50 in test [1] came to 2.25 nM.

B5: hu23.211 (antibody, V domains shown)
VH: B2 VH with Q1E, L70I
VL: B2 VL with T12S
notes: as for B2
B5 gave an EC50 in test [1] of 1.56 nM. Moreover, the “ATPase inhibition IC50” value in test [2] came out at 0.386 nM.

B6: c14 (antibody, V domains shown)
VH: EVKLEESGGGLVQPGGSMKLSCVASGFTFSKYWMNWVRQSPEKGLEWVAEIRLKSNKYGTHYAESVKGRFTISRDDSKNNVYLQMNNLRPEDTGIYYCTTQLDLYWFFDVWGAGTTVTVSS
VL: DIVMTQSPAILSVTPGDRVSLSCRASQSISDYLHWYQQKSHESPRLLIKYASQSISGIPSRFSGSGSGSNFTLSINSVEPEDVGVYFCQNGHSLPLTFGAGTKLELR
notes: variable regions of mAb14 on human IgG constant regions; also called chimeric antibody c14
B6 registered an EC50 in test [5] of 17.5 nM.

B7: hu14.H3L1 (antibody, V domains shown)
VH: EVQLVESGGGLVKPGGSLRLSCAASGFTFSKYWMNWVRQSPGKGLEWVAEIRLKSNKYGTHYAESVKGRFTISRDDSKNTVYLQMNSLKTEDTAVYYCTTQLDLYWFFDVWGQGTTVTVSS
VL: EIVLTQSPATLSLSPGERATLSCRASQSISDYLHWYQQKPGQAPRLLIYYASQSISGIPARFSGSGSGTDFTLTISSLEPEDFAVYYCQNGHSLPLTFGGGTKLEIK
notes: humanized c14
In turn, B7 displayed an EC50 in test [5] of 5.95 nM.

B8: hu14.H4L4 (antibody, V domains shown)
VH: B7 VH with L18M
VL: B7 VL with L4M, L13V, A19V, A43S, L78V, Y87F
notes: humanized c14
For B8, in test [5], the EC50 is 5.46 nM.

B9: hu14.H3L4 (antibody, V domains shown)
VH: B7 VH
VL: B7 VL with L4M, L13V, A19V, A43S, L78V, Y87F
notes: humanized c14
B9: the EC50 in test [5] was found to be 6.05 nM.

B10: hu14.H3L3 (antibody, V domains shown)
VH: B7 VH
VL: B7 VL with L13V, A43S, L78V, Y87F
notes: humanized c14
Take B10: in test [5], it took 6.09 nM to reach a half-maximal effect (EC50).
